Series [1] has as its system patients with recurrent or residual cervical carcinoma. The settings on record: cited from earlier work.
For series [2], the target named is T1, HLA-A*6802 (human, UniProt P30375 25-308 (Gorilla gorilla entry), limits assumed).
T1 construct: purified HLA molecule; b2m and chain limits not described
T1 MHC heavy: not shown
Briefly: competitive binding assay, purified HLA.

The target of series [3] is T1, HLA-A*6802. Description: competitive inhibition assay, purified HLA.

What is called IC50 is the midpoint of a concentration-inhibition curve. Read a low IC50 as greater potency in that assay.

Turning to aKXVAAWTLKAAa-NH2 [PADRE], the responding patients in series [1] (95% interval 10-65%) is reported as 33%. The safety result in series [1] (immunocompromised cervical carcinoma patients) is “favorable safety profile”.
Consider VVLGVVFGI (native HER2/neu peptide) [Her2/neu.665], for which the IC50 in the series with HLA-A*6802 [2] and with HLA-A*6802 [3] was 2000 nM in each case.
For the molecule HLYQGCQVV (native HER2/neu peptide) [Her2/neu.48], the IC50 in the series with HLA-A*6802 [3] was found to be 1140 nM.

The record behind these values is patent US20140147490A1, “HLA CLASS I A2 TUMOR ASSOCIATED ANTIGEN PEPTIDES AND VACCINE COMPOSITIONS” (priority 2012, published 2014).
